Patent US7291458B2, “Leptin-mediated gene-induction” (Vlaams Interuniversitair Instituut Voor Biotechnologie VZW, priority 1998, dated 2007)

Target: T1, long isoform of the mouse leptin receptor (Mus musculus, UniProt P48356)
T1 construct: expressed in transfected cells; host or cells: PC12 (rat pheochromocytoma), transient electroporation with pMET7-mLRlo
T1 sequence (P48356 22-1162): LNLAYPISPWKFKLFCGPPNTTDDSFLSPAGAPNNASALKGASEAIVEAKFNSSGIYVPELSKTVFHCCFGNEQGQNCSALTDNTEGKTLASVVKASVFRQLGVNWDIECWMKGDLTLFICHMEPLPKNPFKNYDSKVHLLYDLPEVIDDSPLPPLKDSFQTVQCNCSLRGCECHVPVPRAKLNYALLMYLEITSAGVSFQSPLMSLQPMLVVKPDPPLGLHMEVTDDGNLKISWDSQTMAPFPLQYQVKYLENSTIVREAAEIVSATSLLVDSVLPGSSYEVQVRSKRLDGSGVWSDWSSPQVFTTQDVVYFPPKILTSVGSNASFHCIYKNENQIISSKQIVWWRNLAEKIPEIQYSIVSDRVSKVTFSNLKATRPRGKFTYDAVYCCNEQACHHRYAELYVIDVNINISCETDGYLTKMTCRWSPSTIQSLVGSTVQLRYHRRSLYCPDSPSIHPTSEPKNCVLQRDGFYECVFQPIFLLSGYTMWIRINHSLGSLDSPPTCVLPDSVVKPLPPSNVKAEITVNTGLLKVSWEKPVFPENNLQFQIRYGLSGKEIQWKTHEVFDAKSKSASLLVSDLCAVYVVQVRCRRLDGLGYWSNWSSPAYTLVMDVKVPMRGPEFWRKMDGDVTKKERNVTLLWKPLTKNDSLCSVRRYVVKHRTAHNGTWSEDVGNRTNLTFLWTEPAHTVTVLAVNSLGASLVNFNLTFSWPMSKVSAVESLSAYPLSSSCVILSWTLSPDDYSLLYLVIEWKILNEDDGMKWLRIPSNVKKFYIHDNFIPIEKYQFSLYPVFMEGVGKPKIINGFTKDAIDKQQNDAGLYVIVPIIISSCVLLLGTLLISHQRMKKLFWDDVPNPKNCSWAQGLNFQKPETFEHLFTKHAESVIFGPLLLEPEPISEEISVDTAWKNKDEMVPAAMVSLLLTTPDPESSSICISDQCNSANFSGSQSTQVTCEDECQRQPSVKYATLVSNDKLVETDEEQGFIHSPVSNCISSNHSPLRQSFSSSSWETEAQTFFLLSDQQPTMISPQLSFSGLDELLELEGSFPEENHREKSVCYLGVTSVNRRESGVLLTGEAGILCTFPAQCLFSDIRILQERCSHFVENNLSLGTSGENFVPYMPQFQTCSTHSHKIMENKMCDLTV
Assay: rNPY promoter luciferase reporter in PC12 cells transiently transfected with pMET7-mLRlo
Type: cell-based
Description: FIG. 1A. Leptin-induced NPY promoter activity in transiently transfected PC12 cells. PC12 cells were co-transfected with control vector (columns 1 and 2), pMET7-mLRsh (columns 3 and 4) or pMET7-mLRlo (columns 5 and 6) together with the pGL3-rNPYluc reporter. The different subcultures were mock stimulated (growth medium alone) or treated with mouse leptin (100 ng/ml) for 72 hours. Luciferase activity in cell lysates is shown; data represent the mean±standard deviation values of assays performed in triplicate.
FIG. 1B. Forskolin co-stimulation on leptin-induced pGL3-rNPY luciferase activity. PC12 cells were transiently co-transfected with pMET7-mLRlo and the pGL3-rNPYluc reporter. […]
In order to study leptin receptor signaling in a neuro-endocrine-related cell type, we transiently transfected PC12 cells with expression vectors for the long or the short isoform of the mouse leptin receptor (pMET7-mLRlo and pMET7-mLRsh respectively) and monitored gene induction by leptin. […]
Luciferase activity was measured in transfected cells by chemiluminescence. […] 70 μl of luciferase substrate buffer (20 mM Tricine; 1.07 mM (MgCO3)4Mg(OH)25H2O; 2.67 mM MgSO4; 0.1 mM EDTA; 33.3 mM DTT; 270 μM Coenzyme A (lithium salt); 470 μM Luciferin (Duchefa); 530 μM ATP, final pH 7.8) was added to 100 μl of cell lysate and measured for 5 seconds by TopCount.NXT Chemiluminescence Counter (Packard).

luciferase activity, rNPY reporter (PC12 cells co-transfected with pGL3-rNPYluc and pMET7-mLRlo, leptin alone): moderate stimulation
optimal co-stimulatory concentration (leptin plus forskolin, rNPY luciferase): 100 ng/mL
B1: leptin: mouse leptin (R&D Systems), ob gene product, used on PC12 cells at 100 ng/ml (protein)
chain: VPIQKVQDDTKTLIKTIVTRINDISHTQSVSAKQRVTGLDFIPGLHPILSLSKMDQTLAVYQQVLTSLPSQNVLQIANDLENLRDLLHLLAFSKSCSLPQTSGLQKPESLDGVLEASLYSTEVVALSRLQGSLQDILQQLDVSPEC
